This note sets out measurements from publication PMC6802930.

The target in test [1] is ^HAβ3/θIC chimera (EC and TM domains from β3, intracellular domain from θ) (rat).
Test [2] deals with ^HAβ3 (rat GABAA receptor β3 subunit with a triple HA tag) (rat) (UniProt P63079).
Test [3] has the same target. The source holds these as a separate data set.
Test [4] deals with ^HAβ3/θIC chimera (EC and TM domains from β3, intracellular domain from θ) (rat). This is another data set of the same source.
Test [5] has as its target ^HAβ3 (rat GABAA receptor β3 subunit with a triple HA tag) (rat) (UniProt P63079). This is another data set of the same source.
The target in test [6] is ^HAβ3/θIC chimera (EC and TM domains from β3, intracellular domain from θ) (rat). The source holds these as a separate data set.

As to “rat GABAA receptor β3 subunit (untagged) (from UniProt P63079 26-473)”, the anti-HA surface immunofluorescence intensity of non-permeabilized HEK293 cells co-transfected with untagged β3 and ^HAβ3/θIC (the chimera alone is rarely on the surface) in test [1] stood at 9.9 AU.
With “^HAβ3 (rat GABAA receptor β3 subunit with a triple HA tag) (from UniProt P63079 26-473)”, the peak whole-cell current evoked by 3 mM histamine, HEK293 cells transfected with ^HAβ3 alone (patch clamp, -80 mV) in test [2] is 404 pA.
For the substance “^zβ3Q64E (mutant β3 subunit with higher affinity for histamine) (from UniProt P63079 26-473) (receptor)”, the share of the low-affinity component in the bimodal histamine concentration-response curve (10 μM to 10 mM), whole-cell patch clamp, HEK293 cells co-transfected with ^zβ3Q64E and ^HAβ3 (% of the total curve fit) in test [3] is 85.
As to “rat GABAA receptor α3 subunit (untagged) (from UniProt P20236 29-493)”, the anti-HA surface immunofluorescence intensity of non-permeabilized HEK293 cells co-transfected with α3 and ^HAβ3/θIC (the chimera alone is rarely on the surface) in test [4] was determined as 14 AU. The histamine (3 mM) potentiation of the response to 1 mM GABA, whole-cell patch clamp, HEK293 cells co-transfected with α3 and ^HAβ3 in test [5] was determined as 2.93 fold. Moreover, the peak whole-cell current evoked by 1 mM GABA, HEK293 cells co-transfected with α3 and ^HAβ3/θIC (patch clamp) in test [6] was found to be 803 pA.
